Results reported in patent US20230047413A1 (Janssen / Centocor, published 2023).
“And” between values parts separate entries of the source, which are not always exact repeats. Identical values can stand only once.

Assays:
[1] = biological target: T1, Peptide-7 (human, phosphothreonine 212, phosphoserine 214 (tau 2N4R numbering); SCBiot and dPEG4 at the N-terminus; amide at the C-terminus); experiment: SPR ProteOn, peptide captured, Fab as analyte; range of n=2; Peptide-7 (pT212/pS214); lower end of n=2 range
Experimental: (§1) The binding affinity of PT3 Fab towards each of the fourteen tau phosphopeptides shown in Table 6 was assessed by surface plasmon resonance (SPR) using a Bio-Rad ProteOn XPR36. Peptides were synthesized by standard chemical methods (New England Peptide) with short-chain biotin and a PEG4 moiety at the N-terminus. Biotinylated peptide was captured on a neutravidin-coated NLC biosensor chip and PT3 Fab was flowed over the surface to measure kinetic parameters.
(§2) All experiments were performed at 25° C. using phosphate buffered saline, pH 7.4, 0.005% Tween 20 (PBST) as both running buffer and sample dilution buffer. Prior to running samples, the NLC chip was conditioned by running PBST over the chip surface for 1 h. Approximately 5-10 RU of peptide was captured on the chip surface by diluting peptide to 10 ng/mL in PBST and injecting over the flow channels at 30 μL/min for 100 s. Serial dilutions of PT3 Fab (1.1-90 nM) were analyzed and, with the exception of Peptide-8, each concentration was measured in duplicate. After capture of peptides, the antibody titration was injected at 60 μL/min for 3 minutes (association phase), followed by 300 s of buffer only (dissociation phase).
The data were double referenced by subtraction of the interspot response and the curves generated by the buffer-only injection. […] The data were analyzed using a simple Langmuir 1:1 binding model.

[2] = biological target: T2, tau phospho-peptide of the direct ELISA of Example 11; experiment: direct ELISA on plate-coated tau phospho-peptide, Fabs
T2 construct: also called pT217 peptide; pT212/pT217 peptide
Experimental: Binding to tau phospho-peptide was analysed by ELISA where peptide (10 ng/mL) was directly coated to the plate overnight. […] After incubation with antibodies, plates were washed and 50 μL per well of HRPO labelled anti-Fab antibody (Jackson Immunoresearch laboratories) (diluted 1:10000 in blocking buffer). After another washing step detection was performed with “One step” TMB (Thermo Scientific) according to the manufacturers' instructions. Plates were analysed in EnVision® 2102 Multilabel Reader (Perkin Elmer, Waltham, Mass., USA). Binding curves were generated using GraphPad Prism7.0 software.

[3] = biological target: T3, Peptide-2 (human, phosphothreonine 212, phosphothreonine 217 (tau 2N4R numbering); short chain biotin (SCBiot) and dPEG4 at the N-terminus; amide at the C-terminus); experiment: SPR ProteOn, peptide captured, Fab as analyte; range of n=2
T3 construct: also called pT212/pT217-tau peptide (Peptide-2)
Experimental: (§3) A subset of HFA-PT3 monoclonal antibody variants, selected based on biophysical characterization and ELISA binding to PHF, were analyzed by Surface Plasmon Resonance (SPR) with a ProteOn XPR36 for binding to the following phosphopeptides: pT212/pT217-tau peptide (Peptide-2, SEQ ID NO: 48) and pT212-tau peptide (Peptide-8, SEQ ID NO: 54). All experiments were performed at 25° C. using PBST, pH 7.4, (Bio-Rad Cat#176-2720) as both running buffer and sample dilution buffer.
(§4) Fab/peptide binding. Biotinylated peptide was captured on a neutravidin-coated NLC biosensor chip pre-conditioned with PBST, and Fab was flowed over the surface to measure kinetic parameters. Approximately 5-10 RU of peptide was captured on the chip surface by diluting peptide to 10 ng/mL in PBST and injecting over the flow channels at 30 μL/min for 100 s. Serial dilutions of PT3 Fab (1.1 nM to 90 nM) were injected at 60 μL/min for 3 minutes (association phase), followed by 300 s of buffer only (dissociation phase).
(§5) Data were double referenced by subtraction of the interspot response, and the curves generated by the buffer only injection. The chip surface was regenerated with 0.85% phosphoric acid, followed by PBST injection before the next antibody titration injection. Data processing and analysis were performed using instrument software. The data were fit using a simple Langmuir 1:1 binding model.

[4] = biological target: T2, tau phospho-peptide of the direct ELISA …; experiment: direct ELISA, peptide coated
Method in brief: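 Tau phospho-peptide coated directly on plates at 10 ng/mL overnight, then incubated with antibodies. Bound Fab detected with HRPO-labelled anti-Fab antibody (1:10000) and TMB substrate. Binding curves generated from the read-out.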

[5] = biological target: T3, Peptide-2; experiment: SPR ProteOn, peptide captured, Fab as analyte; range of n=2; Peptide-2 (pT212/pT217); Table 6 run; lower end of n=2 range
[6] = biological target: T3, Peptide-2; experiment: SPR ProteOn, peptide captured, Fab as analyte; Peptide-2 (pT212/pT217); separate run of Table 12 (HFA Fab comparison), n=2
Experimental: as §3, §4, §5

[7] = biological target: T3, Peptide-2; experiment: SPR ProteOn, peptide captured, Fab as analyte; range of n=2; upper end of n=2 range
Experimental: as §1, §2
(§6) The data were double referenced by subtraction of the interspot response and the curves generated by the buffer-only injection. The chip surface was regenerated using a single injection of 0.85% phosphoric acid at 30 μL/min for 100 s contact time, followed by four injections of running buffer before the next antibody titration injection. The data processing and kinetic analysis were done using the instrument software. The data were analyzed using a simple Langmuir 1:1 binding model.

[8] = biological target: T1, Peptide-7; experiment: as above
Experimental: as §1, §2, §6

[9] = biological target: Peptide-4 (human, phosphoserine 210, phosphothreonine 217 (tau 2N4R numbering); SCBiot and dPEG4 at the N-terminus; amide at the C-terminus); experiment: as above
Experimental: as §1, §2, §6

[10] = biological target: Peptide-6 (human, phosphothreonine 217 (tau 2N4R numbering); SCBiot and dPEG4 at the N-terminus; amide at the C-terminus); experiment: as above
Experimental: as §1, §2, §6

[11] = biological target: Peptide-5 (human, phosphoserine 210, phosphoserine 214, phosphothreonine 217 (tau 2N4R numbering); SCBiot and dPEG4 at the N-terminus; amide at the C-terminus); experiment: as above
Experimental: as §1, §2, §6

T1 sequence (peptide, as listed by the source): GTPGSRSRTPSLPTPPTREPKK

Kd [1]: 11.3 to 15.7 nM
EC50 (read off the curve) [2]: ~0.2 nM
koff [3]: 4.93e-05 s⁻¹ and 7.84e-05 s⁻¹
kon [3]: 491000 M⁻¹ s⁻¹ and 1.06e+06 M⁻¹ s⁻¹
EC50 [4]: 0.11 nM
Kd [5]: 0.09 to 0.45 nM
Kd [6]: 0.0874 nM
koff [7]: 0.000245 s⁻¹
kon [7]: 982000 M⁻¹ s⁻¹
koff [8]: 0.0056 s⁻¹
kon [8]: 487000 M⁻¹ s⁻¹
koff [9]: 0.00627 s⁻¹
kon [9]: 968000 M⁻¹ s⁻¹
koff [10]: 0.00625 s⁻¹
kon [10]: 558000 M⁻¹ s⁻¹
koff [11]: 0.00598 s⁻¹
kon [11]: 863000 M⁻¹ s⁻¹
B1: PT3 Fab (B187) (Fab, V domains shown)
VH: EVKLVESGGDLVKPGGSLKLSCAASGFTFSSYAMSWVRQNPEKRLEWVASISKGGNTYYPNSVKGRFTISRDNARNILYLQMSSLRSEDTALYYCARGWGDYGWFAYWGQVTLVTVSA
VL: DIKMTQSPSSMYASLGERVTITCKASQDINRYLNWFQQKPGKSPKTLIYRANRLLDGVPSRFSGSGSGQDYSLTISSLDYEDMGIYYCLQYDEFPLTFGDGTKLELK
notes: Chimeric Fab: mouse variable regions, human IgG1/kappa constant region, 6xHis tag at the C-terminus of the heavy chain; also called mouse parental Fab of PT3
